Measured values: patent US20030176674A1 (Human Genome Sciences, published 2003)
Numbering of substitutions follows the chain as printed. One block for each binder: values may come before it.

Target: T1, secreted form of VEGF-2 polypeptide (human vascular endothelial growth factor 2) (human, UniProt P49767 112-227, limits assumed)
T1 construct: also called secreted VEGF-2 protein
T1 sequence: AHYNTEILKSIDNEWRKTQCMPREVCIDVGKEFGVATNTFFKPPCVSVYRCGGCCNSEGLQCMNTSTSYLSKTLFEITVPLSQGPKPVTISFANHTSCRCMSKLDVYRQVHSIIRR
Assay: BIAcore (SPR), CM5 chip; antibody captured by goat anti-human Fc; secreted VEGF-2 injected at 2.9-95.2 nM; double reference subtraction
Experimental: A high-density CM5 BIAcore sensor chip was prepared using 10 ug/mL of purified goat anti-human fc antibody as the capture reagent. The optimal pH for immobilization was pH 4 (10 mM sodium acetate). An EDC/NHS complex was applied first to activate the carboxyl groups on the sensor matrix. After the VEGF-2 antibodies were immobilized, the esters were inactivated with ethanolamine. Both a control and an experimental flow cell were used.
The kinetics cycle was performed with the following procedures. The flow rate for the entire binding cycle was 25 uL/minute. The purified VEGF-2 antibody, at 5 ug/mL, was injected only in the experimental flow cell for 1 minute. The secreted form of VEGF-2 was then injected into control and experimental flow cells. The concentration the secreted form of VEGF-2 polypeptide varied for each cycle. The secreted form of VEGF-2 polypeptide (calculated as a 21 kDa dimer) was diluted in HBS-EP from 2 ug/mL (95.2 nM) to-0.06 ug/mL (2.9 nM). Both association and dissociation was 7 minutes. Regeneration was performed using 8 uL of 25 mM HCl for all flow cells.
Evaluation was performed using the double reference subtraction, which subtracts the control flow cell from the experimental and also subtracts a buffer injection.

- Kd: 0.321 nM
- koff: 9.49e-05 s⁻¹
- kon: 295000 M⁻¹ s⁻¹
B1: antibody 1.2.3 (antibody expressed by hybridoma cell line 1.2.3, ATCC Deposit Number PTA-3342) (antibody, human IgG2, V domains shown)
VH: QVQLVESGGGVVQPGRSLRLSCAASGFTFSRYGMHWVRQAPGKGLEWVALIWYDGSNKYYADSVKGRFTISRDNSKNTLYLQMNSLRAEDTAVYYCARDGFGSGCFDYWGQGTLVTVSS
VL: DIVMTQTPLSLSVTPGQPASISCKSSQSLLHSDGKTYLYWHLQKPGQPPQLLIYEVSHRFSGVPDRFSGSGSGTDFTLKISRVEAEDVGLYYCVQSIQLPLTFGGGTKVEIKR
notes: Purified hybridoma antibody from XenoMouse; also called Hybridoma 1.2.3

- Kd: 1.79 nM
- koff: 0.000657 s⁻¹
- kon: 367000 M⁻¹ s⁻¹
B2: antibody 1.5.1 (antibody expressed by hybridoma cell line 1.5.1, ATCC Deposit Number PTA-3341) (antibody, V domains shown)
VH: QVQLVESGGGVVQPGRSLRLSCAASGFTFSRYGMHWVRQAPGKGLEWVAIIWYDGSDKYYADSVKGRFTISRDNSKNTLYLQMSSLRAEDTAVYYCARGTVGASFDYWGQGTLVTVSS
VL: B1 VL with H31N, H41Y, Y54N, H58N, L90V, V94L
notes: Purified hybridoma antibody from XenoMouse; VAX1510 is the IgG1 conversion of 1.5.1; also called Hybridoma 1.5.1
